{"source": "paper PMC10397247", "experiment_in_all_cases": "two-hybrid library CCmax;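 note: natural log of median RNA to DNA barcode read ratio; higher means stronger binding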", "key": {"[1]": {"molecular_target": "T1, 4H2151-AA", "T1 chain": "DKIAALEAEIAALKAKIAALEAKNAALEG", "details": "mean of both orientations"}, "[2]": {"molecular_target": "T2, 4H317-AA", "T2 chain": "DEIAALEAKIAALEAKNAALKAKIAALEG", "details": "mean of both orientations"}, "[3]": {"molecular_target": "T3, 4H2729-AA", "T3 chain": "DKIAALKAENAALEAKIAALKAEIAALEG", "details": "mean of both orientations"}, "[4]": {"molecular_target": "T4, 4H3627-AA", "T4 chain": "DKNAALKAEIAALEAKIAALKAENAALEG", "details": "mean of both orientations"}, "[5]": {"molecular_target": "T5, 4H1867-AA", "T5 chain": "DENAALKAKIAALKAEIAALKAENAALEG", "details": "mean of both orientations"}, "[6]": {"molecular_target": "T6, 4H3606-AA", "T6 chain": "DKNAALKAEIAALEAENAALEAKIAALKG", "details": "mean of both orientations"}, "[7]": {"molecular_target": "T7, 4H2078-AA", "T7 chain": "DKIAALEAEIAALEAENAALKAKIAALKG", "details": "mean of both orientations"}, "[8]": {"molecular_target": "T8, 4H605-AA", "T8 chain": "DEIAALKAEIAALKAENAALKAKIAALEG", "details": "mean of both orientations"}, "[9]": {"molecular_target": "T9, 4H2949-AA", "T9 chain": "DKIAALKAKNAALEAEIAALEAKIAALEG", "details": "mean of both orientations"}, "[10]": {"molecular_target": "T10, 4H2754-AA", "T10 chain": "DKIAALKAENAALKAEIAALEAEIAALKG", "details": "mean of both orientations"}, "[11]": {"molecular_target": "T11, 4H2617-AA", "T11 chain": "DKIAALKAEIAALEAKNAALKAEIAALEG", "details": "mean of both orientations"}, "[12]": {"molecular_target": "T12, 4H2837-AA", "T12 chain": "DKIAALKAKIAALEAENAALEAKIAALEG", "details": "mean of both orientations"}, "[13]": {"molecular_target": "T13, 4H3343-AA", "T13 chain": "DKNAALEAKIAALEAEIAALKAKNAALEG", "details": "mean of both orientations"}, "[14]": {"molecular_target": "T14, 4H780-AA", "T14 chain": "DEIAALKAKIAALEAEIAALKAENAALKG", "details": "mean of both orientations"}, "[15]": {"molecular_target": "T15, 4H3427-AA", "T15 chain": "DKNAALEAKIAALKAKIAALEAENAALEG", "details": "mean of both orientations"}, "[16]": {"molecular_target": "T16, 4H48-AA", "T16 chain": "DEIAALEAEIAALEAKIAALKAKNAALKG", "details": "mean of both orientations"}, "[17]": {"molecular_target": "T17, 4H678-AA", "T17 chain": "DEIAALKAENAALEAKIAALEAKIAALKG", "details": "mean of both orientations"}, "[18]": {"molecular_target": "T18, 4H342-AA", "T18 chain": "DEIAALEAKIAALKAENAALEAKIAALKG", "details": "mean of both orientations"}, "[19]": {"molecular_target": "T19, 4H3921-AA", "T19 chain": "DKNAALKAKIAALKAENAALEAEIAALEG", "details": "mean of both orientations"}, "[20]": {"molecular_target": "T20, 4H2505-AA", "T20 chain": "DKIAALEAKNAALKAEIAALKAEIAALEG", "details": "mean of both orientations"}, "[21]": {"molecular_target": "T21, 4H2575-AA", "T21 chain": "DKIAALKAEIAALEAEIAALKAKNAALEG", "details": "mean of both orientations"}, "[22]": {"molecular_target": "T22, 4H566-AA", "T22 chain": "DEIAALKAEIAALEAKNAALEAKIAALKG", "details": "mean of both orientations"}, "[23]": {"molecular_target": "T23, 4H1636-AA", "T23 chain": "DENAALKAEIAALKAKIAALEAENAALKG"}, "[24]": {"molecular_target": "T24, 4H2277-AA", "T24 chain": "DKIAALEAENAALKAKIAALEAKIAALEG", "details": "mean of both orientations"}, "[25]": {"molecular_target": "T25, 4H2165-AA", "T25 chain": "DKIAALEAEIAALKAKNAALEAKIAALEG", "details": "mean of both orientations"}, "[26]": {"molecular_target": "T26, 4H2883-AA", "T26 chain": "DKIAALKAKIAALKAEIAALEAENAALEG", "details": "mean of both orientations"}, "[27]": {"molecular_target": "T27, 4H881-AA", "T27 chain": "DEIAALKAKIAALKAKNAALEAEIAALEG", "details": "mean of both orientations"}, "[28]": {"molecular_target": "T28, 4H454-AA", "T28 chain": "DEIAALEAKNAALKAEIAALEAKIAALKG", "details": "mean of both orientations"}, "[29]": {"molecular_target": "T29, 4H3844-AA", "T29 chain": "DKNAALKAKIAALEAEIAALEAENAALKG", "details": "mean of both orientations"}, "[30]": {"molecular_target": "T30, 4H2642-AA", "T30 chain": "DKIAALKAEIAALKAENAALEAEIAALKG", "details": "mean of both orientations"}, "[31]": {"molecular_target": "T31, 4H993-AA", "T31 chain": "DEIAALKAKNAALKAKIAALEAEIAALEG", "details": "mean of both orientations"}, "[32]": {"molecular_target": "T32, 4H234-AA", "T32 chain": "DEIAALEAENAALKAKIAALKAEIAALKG", "details": "mean of both orientations"}, "[33]": {"molecular_target": "T33, 4H906-AA", "T33 chain": "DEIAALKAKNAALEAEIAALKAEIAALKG", "details": "mean of both orientations"}, "[34]": {"molecular_target": "T34, 4H2393-AA", "T34 chain": "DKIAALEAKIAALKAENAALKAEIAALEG", "details": "mean of both orientations"}, "[35]": {"molecular_target": "T35, 4H2190-AA", "T35 chain": "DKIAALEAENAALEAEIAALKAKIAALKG", "details": "mean of both orientations"}, "[36]": {"molecular_target": "T36, 4H717-AA", "T36 chain": "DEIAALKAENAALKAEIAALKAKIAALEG", "details": "mean of both orientations"}, "[37]": {"molecular_target": "T37, 4H3112-AA", "T37 chain": "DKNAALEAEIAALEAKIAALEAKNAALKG", "details": "mean of both orientations"}, "[38]": {"molecular_target": "T38, 4H2466-AA", "T38 chain": "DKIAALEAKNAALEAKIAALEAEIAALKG", "details": "mean of both orientations"}, "[39]": {"molecular_target": "T39, 4H794-AA", "T39 chain": "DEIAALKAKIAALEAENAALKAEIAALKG", "details": "mean of both orientations"}, "[40]": {"molecular_target": "T40, 4H3655-AA", "T40 chain": "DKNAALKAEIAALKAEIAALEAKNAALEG", "details": "mean of both orientations"}, "[41]": {"molecular_target": "T41, 4H429-AA", "T41 chain": "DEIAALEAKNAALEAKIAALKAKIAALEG", "details": "mean of both orientations"}, "[42]": {"molecular_target": "T42, 4H335-AA", "T42 chain": "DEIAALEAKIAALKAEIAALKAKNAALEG", "details": "mean of both orientations"}, "[43]": {"molecular_target": "T43, 4H2354-AA", "T43 chain": "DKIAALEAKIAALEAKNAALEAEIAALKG", "details": "mean of both orientations"}, "[44]": {"molecular_target": "T44, 4H2944-AA", "T44 chain": "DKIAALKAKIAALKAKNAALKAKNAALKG", "details": "mean of both orientations"}}}
{"binder": "DENAALKAEIAALKAKIAALEAENAALKG", "note": "[4H1636-AA]", "values": [{"measurement": "interaction score", "setting": "[1]", "value": -0.999}, {"measurement": "interaction score", "setting": "[2]", "value": -1.74}, {"measurement": "interaction score", "setting": "[3]", "value": -1.23}, {"measurement": "interaction score", "setting": "[4]", "value": -0.519}, {"measurement": "interaction score", "setting": "[5]", "value": -0.897}, {"measurement": "interaction score", "setting": "[6]", "value": -1.17}, {"measurement": "interaction score", "setting": "[7]", "value": -1.57}, {"measurement": "interaction score", "setting": "[8]", "value": -1.56}, {"measurement": "interaction score", "setting": "[9]", "value": -1.16}, {"measurement": "interaction score", "setting": "[10]", "value": -1.42}, {"measurement": "interaction score", "setting": "[11]", "value": -1.46}, {"measurement": "interaction score", "setting": "[12]", "value": -1.5}, {"measurement": "interaction score", "setting": "[13]", "value": -1.42}, {"measurement": "interaction score", "setting": "[14]", "value": -1.3}, {"measurement": "interaction score", "setting": "[15]", "value": -0.846}, {"measurement": "interaction score", "setting": "[16]", "value": -1.07}, {"measurement": "interaction score", "setting": "[17]", "value": -1.1}, {"measurement": "interaction score", "setting": "[18]", "value": -1.29}, {"measurement": "interaction score", "setting": "[19]", "value": -1.8}, {"measurement": "interaction score", "setting": "[20]", "value": -1.47}, {"measurement": "interaction score", "setting": "[21]", "value": -0.963}, {"measurement": "interaction score", "setting": "[22]", "value": -1.41}, {"measurement": "interaction score", "setting": "[23]", "value": 2.39}, {"measurement": "interaction score", "setting": "[24]", "value": -1.87}, {"measurement": "interaction score", "setting": "[25]", "value": -1.82}, {"measurement": "interaction score", "setting": "[26]", "value": -1.16}, {"measurement": "interaction score", "setting": "[27]", "value": -1.46}, {"measurement": "interaction score", "setting": "[28]", "value": -1.23}, {"measurement": "interaction score", "setting": "[29]", "value": -0.519}, {"measurement": "interaction score", "setting": "[30]", "value": -1.33}, {"measurement": "interaction score", "setting": "[31]", "value": -1.52}, {"measurement": "interaction score", "setting": "[32]", "value": -1.95}, {"measurement": "interaction score", "setting": "[33]", "value": -1.91}, {"measurement": "interaction score", "setting": "[34]", "value": -0.706}, {"measurement": "interaction score", "setting": "[35]", "value": -0.932}, {"measurement": "interaction score", "setting": "[36]", "value": -0.951}, {"measurement": "interaction score", "setting": "[37]", "value": -0.658}, {"measurement": "interaction score", "setting": "[38]", "value": -2.07}, {"measurement": "interaction score", "setting": "[39]", "value": -1.68}, {"measurement": "interaction score", "setting": "[40]", "value": -0.763}, {"measurement": "interaction score", "setting": "[41]", "value": -1.27}, {"measurement": "interaction score", "setting": "[42]", "value": -1.41}, {"measurement": "interaction score", "setting": "[43]", "value": -1.49}, {"measurement": "interaction score", "setting": "[44]", "value": -1.81}]}
